The values that follow come from the RNAGym collection of RNA variant scans (doi:10.7554/elife.90254).

B1: LINE1-full (parent)
chain: UACGUAGGUGGUUUUCCCCUGAUAGUGCUAAGGGGGCCUGGAAGUUUGGACUGGGCAGAGCUCAACACAGCGUGGCAAAGUGGCUGUGGCUAGACUGCCUCUCUGGAUUCCUCGUCACUCAGCAGGGCAUCUCUGAGAGAAAUGCC

The variants in the data set derive from B1. The data set can be described thus: self-cleavage, relative activity (ratio to wild type); higher = more cleavage; in vitro, sequencing; the parent is a self-cleaving ribozyme.
For UACGUAGGUGGUUUUCCCCUGAUGGUGCUAAGGGGGCCUGGAAGUUUGGACUGGGCAGAGCUCAACACAGCGUGGCAAUGUGGCUGUGGCUAGACUGCCUCUCUGGAUUCCUCGUCACUCAGCAGGGCAUCUCUGAGAGAAAUGCC [A24G A79U], the self-cleavage was 1.59.

With UACGUAGGUGGUUUUCCCCUGAUGGUGCUAAGGGGGCCUGGAAGUUUGGACUGGGCAGAGCUCAACACAGCGUGGCAAGGUGGCUGUGGCUAGACUGCCUCUCUGGAUUCCUCGUCACUCAGCAGGGCAUCUCUGAGAGAAAUGCC [A24G A79G], the self-cleavage was determined as 0.95.

As for UACGUAGGUGGUUUUCCCCUGAGAGUGCUAAGGGGGCCUGGAAGUUUGGACUGGGCAGAGCUCAACACAGCGUGGCAAAGUGGCUGUGGCUAGACUGCCUCUCUGGAUUCCUCGUCACUCAUCAGGGCAUCUCUGAGAGAAAUGCC [U23G G122U], the self-cleavage was found to be 1.17.

Take UACGUAGGUGGUUUUCCCCUGAUGGUGCUAAGGGGGCCUGGAUGUUUGGACUGGGCAGAGCUCAACACAGCGUGGCAAAGUGGCUGUGGCUAGACUGCCUCUCUGGAUUCCUCGUCACUCAGCAGGGCAUCUCUGAGAGAAAUGCC [A24G A43U]: the self-cleavage was 1.54.

Regarding UACGUAGGUGGUUUUCCCCUGAUGGUGCUAAGGGGGCCUGGAGGUUUGGACUGGGCAGAGCUCAACACAGCGUGGCAAAGUGGCUGUGGCUAGACUGCCUCUCUGGAUUCCUCGUCACUCAGCAGGGCAUCUCUGAGAGAAAUGCC [A24G A43G], the self-cleavage turned out to be 1.12.

UACGUAGGUGGUUUUCCCCUGAUGGUGCUAAGGGGGCCUGGAAGUUUGGACUGGGCAGAGCUCAACACAGCGUGGCAAAGUGGCUGUGGCUCGACUGCCUCUCUGGAUUCCUCGUCACUCAGCAGGGCAUCUCUGAGAGAAAUGCC [A24G A92C]: the self-cleavage turned out to be 0.

Take UACGUAGGUGGUUUUCCCCUGAUGGUGCUAAGGGGGCCUGGAAGUUUGGACUGGGCAGAGCUCAACACAGCGUGGCAAAGUGGCUGUGGCUGGACUGCCUCUCUGGAUUCCUCGUCACUCAGCAGGGCAUCUCUGAGAGAAAUGCC [A24G A92G]: the self-cleavage amounted to 0.2.

Consider UACGUAGGUGGUUUUCCCCUGAGAGUGCUAAGGGGGCCUGGAAGUUUGGACUGGGCAGAGCUCAACACAGCGUGGCAAAGUGGCUGUGGCUAGACUGCCUCUCUGGAUUCCUCGUCACUCAGCAGGGCAUCUCUGAGAGAAACGCC [U23G U143C], for which the self-cleavage was 0.

Turning to UACGUAGGUGGUUUUCCCCUGAUCGUGCUAAGGGGGCCUGGAAGUUUGGACUGGGCAGAGCUCAACACAGCGUGGCAAAGUGGCUGUGGCUAGACUGCCUCUCUGGAUUCCUCGUCACUCAGCGGGGCAUCUCUGAGAGAAAUGCC [A24C A124G], the self-cleavage was 0.98.

Consider UACGUAGGUGGUUUUCCCCUGAUCGUGCUAAGGGGGCCUGGAAGUUUGGACUGGGCAGAGCUCAACACAGCGUGGCAAAGUGGCUGUGGCUAGACUGCCUCUCUGGAUUCCUCGUCACUCAGCAGGGCAUCUCGGAGAGAAAUGCC [A24C U134G], for which the self-cleavage is 1.02.

Take UACGUAGGUGGUUUUCCCCUGAUGGUGCUAAGGGGGCCUGGAAGUUUGGACUGGGCAGAGCUCAACACAGCGUGGCAAAGUGGCUGUGGCUAGACUGCCUCUCUGGAUUCCUCGUCACUCAGCAGGGCAUCUCUGAGUGAAAUGCC [A24G A138U]: the self-cleavage was 1.43.

As to UACGUAGGUGGUUUUCCCCUGAGAGUGCUAAGGGGGCCUGGAAGUUUGGACUGGGCAGAGCUCAACACAGCGUGGCAAAGUGGCUGUGGGUAGACUGCCUCUCUGGAUUCCUCGUCACUCAGCAGGGCAUCUCUGAGAGAAAUGCC [U23G C90G], the self-cleavage was found to be 0.03.

Regarding UACGUAGGUGGUUUUCCCCUGAUCGUGCUAAGGGGGCCUGGAAGUUUGGACUGGGCAGAGCUCUACACAGCGUGGCAAAGUGGCUGUGGCUAGACUGCCUCUCUGGAUUCCUCGUCACUCAGCAGGGCAUCUCUGAGAGAAAUGCC [A24C A64U], the self-cleavage came out at 0.58.

Consider UACGUAGGUGGUUUUCCCCUGAUCGUGCUAAGGGGGCCUGGAAGUUUGGACUGGGCAGAGCUCGACACAGCGUGGCAAAGUGGCUGUGGCUAGACUGCCUCUCUGGAUUCCUCGUCACUCAGCAGGGCAUCUCUGAGAGAAAUGCC [A24C A64G], for which the self-cleavage is 0.64.

Regarding UACGUAGGUGGUUUUCCCCUGAUGGUGCUAAGGGGGCCUGGAAGUUUGGACUGGGCAGAGCUCAACACGGCGUGGCAAAGUGGCUGUGGCUAGACUGCCUCUCUGGAUUCCUCGUCACUCAGCAGGGCAUCUCUGAGAGAAAUGCC [A24G A69G], the self-cleavage turned out to be 0.92.

On to UACGUAGGUGGUUUUCCCCUGAUGGUGCUAAGGGGGCCUGGAAGUUUGGACUGGGCAGAGCUCAACACAGCGUGGCAAAGUGGCUGUGGCUAGACUGCCUCUCUGGAUUCCUCGUCACUCAGCGGGGCAUCUCUGAGAGAAAUGCC [A24G A124G], for which the self-cleavage came out at 1.06.

With UACGUAGGUGGUUUUCCCCUGAUGGUGCUAAGGGGGCCUGGAAGUUUGGACUGGGCAGAGCUCGACACAGCGUGGCAAAGUGGCUGUGGCUAGACUGCCUCUCUGGAUUCCUCGUCACUCAGCAGGGCAUCUCUGAGAGAAAUGCC [A24G A64G], the self-cleavage was found to be 0.53.

In the case of UACGUAGGUGGUUUUCCCCUGAUGGUGCUAAGGGGGCCUGGAAGUUUGGACUGGGCAGAGCUCCACACAGCGUGGCAAAGUGGCUGUGGCUAGACUGCCUCUCUGGAUUCCUCGUCACUCAGCAGGGCAUCUCUGAGAGAAAUGCC [A24G A64C], the self-cleavage was 0.38.

For the variant UACGUAGGUGGUUUUCCCCUGAUGGUGCUAAGGGGGCCUGGAAGUUUGGACUGGGCAGAGCUCAACACAGCGUGGCAAAGUGGCUGUGGCUAGACUGCCUCUCUGGAUUCCUCGUCUCUCAGCAGGGCAUCUCUGAGAGAAAUGCC [A24G A117U], the self-cleavage is 1.09.

For the variant UACGUAGGUGGUUUUCCCCUGAUGGUGCUAAGGGGGCCUGGAAGUUUGGACUGGGCAGAGCUCAACACAGCGUGGCAAAGUGGCUGUGGCUAGACUGCCUCUCUGGAUUCCUCGUCACUCAGCAGGGCCUCUCUGAGAGAAAUGCC [A24G A129C], the self-cleavage turned out to be 0.71.

Take UACGUAGGUGGUUUUCCCCUGAUGGUGCUAAGGGGGCCUGGAAGUUUGGACUGGGCAGAGCUCAACACAGCGUGGCAAAGUGGCUGUGGCUAGACUGCCUCUCUGGAUUCCUCGUCACUCAGCAGGGCGUCUCUGAGAGAAAUGCC [A24G A129G]: the self-cleavage was determined as 1.19.

For the variant UACGUAGGUGGUUUUCCCCUGAUGGUGCUAAGGGGGCCUGGAAGUUUGGACUGGGCAGUGCUCAACACAGCGUGGCAAAGUGGCUGUGGCUAGACUGCCUCUCUGGAUUCCUCGUCACUCAGCAGGGCAUCUCUGAGAGAAAUGCC [A24G A59U], the self-cleavage was 1.17.

As for UACGUAGGUGGUUUUCCCCUGAUCGUGCUAAGGGGGCCUGGAAGUUUGGACUGGGCAGAGCUCAACACAGCGUGGCAAAGUGGCUGUGGCUAGACUGCCUCUCUGGAUUCCUCGUCACUCAGCAGGGCAUCUCUGAGAGAACUGCC [A24C A142C], the self-cleavage turned out to be 1.13.

As to UACGUAGGUGGUUUUCCCCUGAGAGUGCUAAGGGGGCCUGGAAGUUUGGACUGGGCAGAGCUCAACACAGCGUGGCAAAGUGGCUGUGGCUAGACUGCCUCUCUGGAUACCUCGUCACUCAGCAGGGCAUCUCUGAGAGAAAUGCC [U23G U109A], the self-cleavage is 1.

As to UACGUAGGUGGUUUUCCCCUGAUCGUGCUAAGGGGGCCUGGAAGUUUGGACUGGGCAGAGCUCAACACAGCGAGGCAAAGUGGCUGUGGCUAGACUGCCUCUCUGGAUUCCUCGUCACUCAGCAGGGCAUCUCUGAGAGAAAUGCC [A24C U73A], the self-cleavage is 0.46.

In the case of UACGUAGGUGGUUUUCCCCUGAUCGUGCUAAGGGGGCCUGGAAGUUUGGACUGGGCAGAGCUCAACACAGCGUGGCAAUGUGGCUGUGGCUAGACUGCCUCUCUGGAUUCCUCGUCACUCAGCAGGGCAUCUCUGAGAGAAAUGCC [A24C A79U], the self-cleavage came to 2.24.

On to UACGUAGGUGGUUUUCCCCUGAGAGUGCUAAGGGGGCCUGGAAGUUUGGACUGGGCAGAGCUCAACACAGCGUGGCAAAGUGGCUGUGGCUAGACUGCCUCUCUGGAUUCCUCGUCACUCAGCAGGGCAUCUCUGAGAGGAAUGCC [U23G A140G], for which the self-cleavage was determined as 1.27.

As for UACGUAGGUGGUUUUCCCCUGAUGGUGCUAAGGGGGCCUGGAAGUUUGGACUGGGCCGAGCUCAACACAGCGUGGCAAAGUGGCUGUGGCUAGACUGCCUCUCUGGAUUCCUCGUCACUCAGCAGGGCAUCUCUGAGAGAAAUGCC [A24G A57C], the self-cleavage turned out to be 0.

Take UACGUAGGUGGUUUUCCCCUGAUGGUGCUAAGGGGGCCUGGAAGUUUGGACUGGGCAGAGCUCAACACAGCGUGGCAAAGUGGCUGUGGCUAGUCUGCCUCUCUGGAUUCCUCGUCACUCAGCAGGGCAUCUCUGAGAGAAAUGCC [A24G A94U]: the self-cleavage came out at 0.49.

As to UACGUAGGUGGUUUUCCCCUGAUGGUGCUAAGGGGGCCUGGAAGUUUGGACUGGGCAGAGCUCAACACAGCGUGGCAAAGUGGCUGUGGCUAGGCUGCCUCUCUGGAUUCCUCGUCACUCAGCAGGGCAUCUCUGAGAGAAAUGCC [A24G A94G], the self-cleavage was 0.31.

For UACGUAGGUGGUUUUCCCCUGAUGGUGCUAAGGGGGCCUGGAAGUUUGGACUGGGCAGAGCUCAACACAGCGUGGCAAAGUGGCUGUGGCUAGACUGCCUCUCUGGUUUCCUCGUCACUCAGCAGGGCAUCUCUGAGAGAAAUGCC [A24G A107U], the self-cleavage turned out to be 1.05.

Take UACGUAGGUGGUUUUCCCCUGAUCGUGCUAAGGGGGCCUGGAAGUUUGGACUGGGCAGAGCUCAACGCAGCGUGGCAAAGUGGCUGUGGCUAGACUGCCUCUCUGGAUUCCUCGUCACUCAGCAGGGCAUCUCUGAGAGAAAUGCC [A24C A67G]: the self-cleavage was determined as 0.42.

Regarding UACGUAGGUGGUUUUCCCCUGAUGGUGCUAUGGGGGCCUGGAAGUUUGGACUGGGCAGAGCUCAACACAGCGUGGCAAAGUGGCUGUGGCUAGACUGCCUCUCUGGAUUCCUCGUCACUCAGCAGGGCAUCUCUGAGAGAAAUGCC [A24G A31U], the self-cleavage is 1.37.

Take UACGUAGGUGGUUUUCCCCUGAUGGUGCUAAGGGGGCCUGGAAGUUUGGACUGGGCAGAGCUCAACACAGCGUGGCUAAGUGGCUGUGGCUAGACUGCCUCUCUGGAUUCCUCGUCACUCAGCAGGGCAUCUCUGAGAGAAAUGCC [A24G A77U]: the self-cleavage was found to be 1.04.

Regarding UACGUAGGUGGUUUUCCCCUGAUGGUGCUAAGGGGGCCUGGAAGUUUGGACUGGGCAGAGCUCAACUCAGCGUGGCAAAGUGGCUGUGGCUAGACUGCCUCUCUGGAUUCCUCGUCACUCAGCAGGGCAUCUCUGAGAGAAAUGCC [A24G A67U], the self-cleavage turned out to be 0.24.

Take UACGUAGGUGGUUUUCCCCUGACAGUGCUAAGGGGGCCUGGAAGUUUGGACUGGGCAGAGCUCAACACAGCGUGGCAAAGUGGCUGUGGCUAGACUGCCUCUCUGGAUUCCUCGUCACUCAGCAGGGCAUCUCUGAGAGAAACGCC [U23C U143C]: the self-cleavage came to 1.41.

For UACGUAGGUGGUUUUCCCCUGAUGGUGCUAAGGGGGCCUGGAAGUUUGGGCUGGGCAGAGCUCAACACAGCGUGGCAAAGUGGCUGUGGCUAGACUGCCUCUCUGGAUUCCUCGUCACUCAGCAGGGCAUCUCUGAGAGAAAUGCC [A24G A50G], the self-cleavage was determined as 1.16.

For the variant UACGUAGGUGGUUUUCCCCUGACAGUGCUAAGGGGGCCUGGAAGUUUGGACUGGGCAGAGCUCAACACAGCGUGGCAAAGUGGCUGUGGCUAGACUGCCUCUCUGGAUUCCUCGUCACUCAGCAGGGCACCUCUGAGAGAAAUGCC [U23C U130C], the self-cleavage was 1.76.

Regarding UACGUAGGUGGUUUUCCCCUGAUGGUGCUAAGGGGGCCUGGAAGUUUGGACUGGGCAGAGCUCAGCACAGCGUGGCAAAGUGGCUGUGGCUAGACUGCCUCUCUGGAUUCCUCGUCACUCAGCAGGGCAUCUCUGAGAGAAAUGCC [A24G A65G], the self-cleavage worked out at 0.3.
